The target of the assay is maize RIP β-chain (second component of the gePSI), C-terminally fused to a murine ornithine decarboxylase (ODC36) degron (maize (Zea mays); murine) (UniProt P00860). As to the kind of experiment: cell-based or functional assay. To be noted: scale: normalized nascent protein signal.
Sequence of UniProt P00860 (P00860 426-461, tags or fused parts left off): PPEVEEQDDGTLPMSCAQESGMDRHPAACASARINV

“maize RIP α-chain (first component of the gePSI) (from UniProt P25891 22-161) (enzyme)” showed a nascent protein signal of gePSI-transfected neurons after 4 h dox, normalized to the mean of neighboring untransfected neurons (FIG. 1g) of 0.21.

The record behind these values is patent publication US20220220164A1.
